The target of data set [1] is PpDyP variant 6E10 (E188K/A142V/H125Y) (Pseudomonas putida MET94). The data set can be described thus: crystal structure.
Data set [2] relates to CCn1c(=NN=c2sc3cc(S(=O)(=O)O)ccc3n2CC)sc2cc(S(=O)(=O)O)ccc21. The experiment in a line: purified protein. The following applies: 1.5 mM H2O2, 100 mM sodium acetate, pH 4.3, 25 °C, variant 29E4.

In general, stoichiometry N refers to a count of units in the complex or per binding partner. On to “PpDyP variant 6E10 (E188K/A142V/H125Y) (enzyme)”, for which the stoichiometry N in data set [1] was 4.

A word on the Km: it is the concentration of substrate that gives half-maximal velocity. As for “PpDyP (Pseudomonas putida KT2440; E188K/H125Y)”, in data set [2], the Michaelis-Menten constant (Km) is on record as 810 ± 190 µM.

(Values after article PMC9334217.)
